Measurements: the DeepSol protein solubility set

test: soluble on expression in E. coli; label from the status in PepcDB or PDB records

Soluble on expression in E. coli, soluble:
STDIQMTQSPSSLSASVGDRVTITCQASQDINNYLIWYQQKPGQAPKLLIYDASTLETGVPSRFSGSGSGTEFTFTISSLQPEDLATYYCQQYDNLPYTFGQGTKLEIKR, STFAYIANSESDNISVIDVTSNKVTATIPVGSNPMGAVISPDGTKVYVANAHSNDVSIIDTATNNVIATVPAGSSPQGVAVSPDGKQVYVTNMASSTLSVIDTTSNTVAGTVKTGKSPLGLALSPDGKKLYVTNNGDKTVSVINTVTKAVINTVSVGRSPKGIAVTPDGTKVYVANFDSMSISVIDTVTNSVIDTVKVEAAPSGIAVNPEGTKAYVTNVDKYFNTVSMIDTGTNKITARIPVGPDPAGIAVTPDGKKVYVALSFCNTVSVIDTATNTITATMAVGKNPYASGQFIGSIPVQPVYPSADFKSNITSGYIFLSEPVQFTDLSKDATEWKWDFGDGSSSKKQNPTHTYSETGIYTVRLTVSNSNGTDSQISTVNVVLKGSPTPS, STLPRFDSVDLGNAPVPADAARRFEELAAKAGTGEAWETAEQIPVGTLFNEDVYKDMDWLDTYAGIPPFVHGPYATMYAFRPWTIRQFAGFSTAKESNAFYRRNLAAGQKGLSVAFDLPTHRGYDSDNPRVAGDVGMAGVAIDSIYDMRELFAGIPLDQMSVSMTMNGAVLPILALYVVTAEEQGVKPEQLAGTIQNDILKEFMVRNTYIYPPQPSMRIISEIFAYTSANMPKWNSISISGYHMQEAGATADIEMAYTLADGVDYIRAGESVGLNVDQFAPRLSFFWGIGMNFFMEVAKLRAARMLWAKLVHQFGPKNPKSMSLRTHSQTSGWSLTAQDVYNNVVRTCIEAMAATQGHTQSLHTNSLDEAIALPTDFSARIARNTQLFLQQESGTTRVIDPWSGSAYVEELTWDLARKAWGHIQEVEKVGGMAKAIEKGIPKMRIEEAAARTQARIDSGRQPLIGVNKYRLEHEPPLDVLKVDNSTVLAEQKAKLVKLRAERDPEKVKAALDKITWAAGNPDDKDPDRNLLKLCIDAGRAMATVGEMSDALEKVFGRYTAQIRTISGVYSKEVKNTPEVEEARELVEEFEQAEGRRPRILLAKMGQDGHDRGQKVIATAYADLGFDVDVGPLFQTPEETARQAVEADVHVVGVSSLAGGHLTLVPALRKELDKLGRPDILITVGGVIPEQDFDELRKDGAVEIYTPGTVIPESAISLVKKLRASLDA, STLQFKVGPPFELVRDYCPVVESHTGRTLDLRIIPRIDRGFDHIDEEWVGYKRNYFTLVSTFETANCDLDTFLKSSFDLLVEDSSVESRLRVQYFAIKIKAKNDDDDTEINLVQHTAKRDKGPQFCPSVCPLVPSPLPKHQIIREASNVRNITKTKKYDSTFYLHRNHVNYEEYGVDSLLFSYPEDSIQKVARYERVQFASSISVKKPFQQNKHFSLHVILGAVVDPDTFHGENPGIPYDELALKNGSKGMFVYLQEMKTPPLIIRGRSPSN, STTTTTKKPHVLVIPFPQSGHMVPHLDLTHQILLRGATVTVLVTPKNSSYLDALRSLHSPEHFKTLILPFPSHPCIPSGVESLQQLPLEAIVHMFDALSRLHDPLVDFLSRQPPSDLPDAILGSSFLSPWINKVADAFSIKSISFLPINAHSISVMWAQEDRSFFNDLETATTESYGLVINSFYDLEPEFVETVKTRFLNHHRIWTVGPLLPFKAGVDRGGQSSIPPAKVSAWLDSCPEDNSVVYVGFGSQIRLTAEQTAALAAALEKSSVRFIWAVRDAAKKVNSSDNSVEEDVIPAGFEERVKEKGLVIRGWAPQTMILEHRAVGSYLTHLGWGSVLEGMVGGVMLLAWPMQADHFFNTTLIVDKLRAAVRVGENRDSVPDSDKLARILAESAREDLPERVTLMKLREKAMEAIKEGGSSYKNLDELVAEMCL, SVFDIYKIGVGPSSSHTVGPMKAGKEFIDDLRAMGKLRDITKITVDVYGSLSLTGKGHHTDIAIIMGLAGNSPEKVDIDSIPGFIARVEETERLPVGMHCHTVSFPREGGMNFHKTNLELHENGMQIHAWIDDEKVYSKTYYSIGGGFIVDEENFGK, SVGTTSVVKNSHEEVVQTLANSLFPAQFMNGNIHIPVAVQAVAGTYQNTAQTVHIWDPQQQPQQQTPQEQTPPPQQQQQQLQVTCSAQTVQVAEVEPQSQPQPSPELLLPNSLKPEEGLEVWKNWAQTKNAELEKDAQNRLAPIGRRQLLRFQEDLISSAVAELNYGLCLMTREARNGEGEPYDPDVLYYIFLCIQKYLFENGRVDDIFSDLYYVRFTEWLHEVLKDVQPRVTPLGYVLPSHVTEEMLWECKQLGAHSPSTLLTTLMFFNTKYFLLKTVDQHMKLAFSKVLRQTKKNPSNPKDKSTSIRYLKALGIHQTGQKVTDDMYAEQTENPENPLRCPIKLYDFYLFKCPQSVKGRNDTFYLTPEPVVAPNSPIWYSVQPISREQMGQMLTRILVIREIQEAIAVANASTMH
